What was measured:
[1] = molecular target: T1, human PD-L1 expressed on mammalian cells (human, UniProt Q9NZQ7 19-290); assay: FACS on PD-L1 Raji cells by the text; the axis unit is printed only as 'ng', no volume
T1 construct: whole, on cells; The cell line (CHOK1 or Raji) is named under assay in each row; also called PDL1-CHOK1 cells; PD-L1 Raji cells
Experimental: Briefly, PD-L1 Raji cells were first incubated with 5-fold serially diluted humanized antibodies starting at 2 μg/ml at RT for 1 hour. After wash by FACS buffer (PBS with 2% FBS), the Alexa 488-anti-human IgG antibody was added to each well and incubated at RT for 1 hour. The MFI of Alexa 488 were evaluated by FACSAriaIII.

[2] = molecular target: T2, PD-L1 Y134 alanine-scan mutant (human, UniProt Q9NZQ7 19-290, limits assumed); assay: alanine-scan library, high-throughput flow cytometry; threshold for critical clones
T2 construct: Read by flow cytometry
Text: (§1) An alanine-scan library of PD-L1 was constructed. Briefly, 217 mutant clones of PD-L1 were generated on Integral Molecular's protein engineering platform. […] For each PD-L1 variant, the mean binding value was plotted as a function of expression (control anti-PD-L1 mAb reactivity).

[3] = molecular target: T3, PD-L1 K162 alanine-scan mutant (human, UniProt Q9NZQ7 19-290, limits assumed); assay: as above
T3 construct: Read by flow cytometry
Text: as §1

[4] = molecular target: T4, PD-L1 N183A clone (human, UniProt Q9NZQ7 19-290, limits assumed); assay: as above
T4 construct: Read by flow cytometry
Text: as §1

T1 sequence (Q9NZQ7 19-290): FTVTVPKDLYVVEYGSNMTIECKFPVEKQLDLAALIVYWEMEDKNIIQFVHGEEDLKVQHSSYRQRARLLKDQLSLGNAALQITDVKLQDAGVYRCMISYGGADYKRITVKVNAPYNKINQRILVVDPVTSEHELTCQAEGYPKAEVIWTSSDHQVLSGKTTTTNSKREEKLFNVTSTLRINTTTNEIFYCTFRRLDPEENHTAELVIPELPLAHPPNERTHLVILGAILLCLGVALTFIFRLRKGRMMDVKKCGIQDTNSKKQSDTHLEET
T2 sequence (Q9NZQ7 other isoform, or with tags, fused parts or gaps mutant limits assumed): as the sequence (Q9NZQ7 19-290) above, with Y116A counted along it
T4 sequence (Q9NZQ7 19-290 N183A limits assumed): as the sequence (Q9NZQ7 19-290) above, with N165A counted along it
T3 sequence (Q9NZQ7 other isoform, or with tags, fused parts or gaps mutant limits assumed): as the sequence (Q9NZQ7 19-290) above, with K144A counted along it

Binder | EC50 (read off the curve) [1] [ng] | % WT reactivity [2] | % WT reactivity [3] | % WT reactivity [4]
Hu1210-41 (antibody, V domains shown, Humanized; also called Hu1210-41 antibody; parental antibody Hu1210-41) VH: EVQLVESGGGLVQPGGSLRLSCAASGFTFSSYDMSWVRQAPGKSLEWVATISDAGGYIYYSDSVKGRFTISRDNAKNSLYLQMNSLRDEDTAVYICAREFGKRYALDYWGQGTTVTVSS VL: DIQMTQSPSSLSASVGDRVTITCKASQDVTPAVAWYQQKPGKAPKLLIYSTSSRYTGVPSRFSGSGSGTDFTFTISSLQPEDIATYYCQQHYTTPLTFGQGTKLEIK | ~0.5 |  |  | 
WT (S60R mutant of Hu1210-41) (antibody, V domains shown, Differs from Hu1210-41 by S60R (Kabat) in the heavy chain; Detected with anti-human IgG; also called S6OR (CDRH2) mutant; parental antibody WT) VH: EVQLVESGGGLVQPGGSLRLSCAASGFTFSSYDMSWVRQAPGKSLEWVATISDAGGYIYYRDSVKGRFTISRDNAKNSLYLQMNSLRDEDTAVYICAREFGKRYALDYWGQGTTVTVSS VL: DIQMTQSPSSLSASVGDRVTITCKASQDVTPAVAWYQQKPGKAPKLLIYSTSSRYTGVPSRFSGSGSGTDFTFTISSLQPEDIATYYCQQHYTTPLTFGQGTKLEIK | ~0.4 |  |  | 
Hu1210-41 Fab (Fab, V domains shown) VH: EVQLVESGGGLVQPGGSLRLSCAASGFTFSSYDMSWVRQAPGKSLEWVATISDAGGYIYYSDSVKGRFTISRDNAKNSLYLQMNSLRDEDTAVYICAREFGKRYALDYWGQGTTVTVSS VL: DIQMTQSPSSLSASVGDRVTITCKASQDVTPAVAWYQQKPGKAPKLLIYSTSSRYTGVPSRFSGSGSGTDFTFTISSLQPEDIATYYCQQHYTTPLTFGQGTKLEIK |  | < 30 % of WT | < 30 % of WT | < 30 % of WT

— patent US20220119531A1 (I MAB BIOPHARMA US, published 2022)
